Assay results reported in the DeepSol protein solubility set.

Assay: soluble on expression in E. coli; label from the status in PepcDB or PDB records

Row | Sequence | soluble on expression in E. coli
1 | MSLSMCGNKISVIRPLPAEVVKKIAAGEIIARPSSAIKELIENSVDAGATEIRVNLSSNPLDFCEIIDNGSGVSEKDLMIICQRYTTSKTTDSIEGVRSLGFRGEALSSLSQNSHVTISSRTENENMRTVMTYSECEPVLDEIRYEEGPRGFHLKYENLFYNYEIRSKSLLSNINSEFISCLHLVQKYSIHFPNINFVFNRTSSPILDLNNLNNVSSQQSSGSGSGDSCSSQPNCNFSTSSRFDDYDSSDDELDITLTQKLEYDYHYFTKMYDDPKSDDLRTEYIRNVEKVSFDCLRVIKENIKRIYGLKVSNVLQEVVFNNFDDLFFNCKGLISHPNQPCKLDMFILFVNNRLIDLPNLRRMIFNTYNDITNNRYRRFVYLSIFVPYDQIDSNIHPTKKRIMIENQAEIVEQITKFFHDKITELIKSATTEGHHHHHH | soluble
2 | MEWAAKKTNSLTSSSERTWKANLLVPVEDPRELMGTFDFLRDITYPKGSVKLLGLAGNTDKENLLSQLPSISEGFQEEGVFSSWTIIDTAEFEENLVVGMEALTGSFFRPSILFLRLPENRDRDEEIREIIRKASMYRMGVLLFSKHPQAGLGRQNLINLWIENRGLDWDISMELGNMDLALLIAYKLKSNWKASLSFMTFAPTAIQAQAAENFLQSLAELARIPNVKMQVLRENPIKSSKLPFASLHIFSLDPNPDLDLARHLMEKAGSSCIFALDSGEENALALLEHHHHHH | soluble
3 | MASHIVGYPRMGPKRELKFALESFWDGKSTAEDLQKVSADLRSSIWKQMSAAGTKFIPSNTFAHYDQVLDTTAMLGAVPPRYGYTGGEIGLDVYFSMARGNASVPAMEMTKWFDTNYHYIVPELGPEVNFSYASHKAVNEYKEAKALGVDTVPVLVGPVSYLLLSKAAKGVDKSFELLSLLPKILPIYKEVITELKAAGATWIQLDEPVLVMDLEGQKLQAFTGAYAELESTLSGLNVLVETYFADIPAEAYKTLTSLKGVTAFGFDLVRGTKTLDLVKAGFPEGKYLFAGVVDGRNIWANDFAASLSTLQALEGIVGKDKLVVSTSCSLLHTAVDLINETKLDDEIKSWLAFAAQKVVEVNALAKALAGQKDEALFSANAAALASRRSSPRVTNEGVQKAAAALKGSDHRRATNVSARLDAQQKKLNLPILPTTTIGSFPQTVELRRVRREYKAKKVSEEDYVKAIKEEIKKVVDLQEELDIDVLVHGEPERNDMVEYFGEQLSGFAFTANGWVQSYGSRCVKPPVIYGDVSRPKAMTVFWSAMAQSMTSRPMKGMLTGPVTILNWSFVRNDQPRHETCYQIALAIKDEVEDLEKGGIGVIQIDEAALREGLPLRKSEHAFYLDWAVHSFRITNCGVQDSTQIHTHMCYSHFNDIIHSIIDMDADVITIENSRSDEKLLSVFREGVKYGAGIGPGVYDIHSPRIPSSEEIADRVNKMLAVLEQNILWVNPDCGLKTRKYTEVKPALKNMVDAAKLIRSQLASAK | soluble
4 | MKTSYDDTRQHLLDTGYRIMAVKGFSGVGLNEILQSAGVPKGSFYHYFKSKEQFGQALLEDYFRVYLADMDQRFSAPGLNARERLMSYWQKWLDNACPPCDEQRCLVVKLSAEVADLSESMRITLRDGSDGIIERLVGCLGQGRDDGSLAPCDARHMASALYQLWLGASLLSKLHRSPGPLETAMQTTRSLLEI | soluble
5 | SNRTSAKSNLMLILLGLQMKEISNSDLYKLKEVRSVVTSLASFLFQQQNVGVMKSFDSLEKEAFRDLVNRLVSQGLIGLKDKTSETFDLLPLKNLFEYAEKRISVLMKLQCYTGTVQLSHVQEKLHLPYITTNGIVDVFKECLKRTKKQYPEVLKNWWIDLDPKNGMEDQNSGILLHLEYAAAYS | soluble
6 | MGSDKIHHHHHHMVDTHAHLHFHQFDDDRNAVISSFEENNIEFVVNVGVNLEDSKKSLDLSKTSDRIFCSVGVHPHDAKEVPEDFIEHLEKFAKDEKVVAIGETGLDFFRNISPAEVQKRVFVEQIELAGKLNLPLVVHIRDAYSEAYEILRTESLPEKRGVIHAFSSDYEWAKKFIDLGFLLGIGGPVTYPKNEALREVVKRVGLEYIVLETDCPFLPPQPFRGKRNEPKYLKYVVETISQVLGVPEAKVDEATTENARRIFLEVKE | soluble
7 | GAGTLIKDNLKRDLITSLPFEISLKIFNYLQFEDIINSLGVSQNWNKIIRKSTSLWKKLLISENFVSPKGFNSLNLKLSQKYPKLSQQDRLRLSFLENIFILKNWYNPKFVPQRTTLRGHMTSVITCLQFEDNYVITGADDKMIRVYDSINKKFLLQLSGHDGGVWALKYAHGGILVSGSTDRTVRVWDIKKGCCTHVFEGHNSTVRCLDIVEYKNIKYIVTGSRDNTLHVWKLPKESSVPDHGEEHDYPLVFHTPEENPYFVGVLRGHMASVRTVSGHGNIVVSGSYDNTLIVWDVAQMKCLYILSGHTDRIYSTIYDHERKRCISASMDTTIRIWDLENGELMYTLQGHTALVGLLRLSDKFLVSAAADGSIRGWDANDYSRKFSYHHTNLSAITTFYVSDNILVSGSENQFNIYNLRSGKLVHANILKDADQIWSVNFKGKTLVAAVEKDGQSFLEILDFS | soluble
8 | MGSDKIHHHHHHMTTDHPSAYCFFQDLAPRPPLDAAFDRDYLLYAIRGALRVSVAGESWLLPPSFAAWLPANTPISVDIDKPVTTCSVLARPGLCTGLPEKACVFQMSPMARQMIHYCKDWGPDAAHPAQAEGFFLALLHVCADLAVKSVDVKRPTATDPVLRKAIDITEAHLAQAITANEIARKVNLSERSMQRHFQMDVGMTWSQTLTQLRMIHAVALLAEGKLSIIQIAGYTGFQSLSAFNRAFRTFAATTPTKFRKALLD | not soluble
9 | MSLKDYRLFLIDLDGTIYRGKETIESGVRFVKRLDEAGLDYLFLTNNTTRTPQMVADKLAGHGVKTDVSKIYTPSMATASYILEKEAKRPIGVYIIGQIGLWKEILDRPEFYYDEENPDYVIVGMDTDLTYHKLMVATRCIHRGAVFIGTNSDQNLPVGKELRPGNGSICAALEVASGQKPLFIGKPEAIIVNRALDLAGVKAEEALIVGDNYPTDIMAGINSGVDTLLTLTGVTQKADLAGLTPPTYLVNDLDEFSEGHHHHHH | soluble
10 | MGSDKIHHHHHHTVDNRHDPLESMNRAVFSFNEKLDEVVLEPVARGYQRFIPSPVRMIVGNFFSNLDDVVVAANSLLQLKFMDAMASTTRIVINTTFGMLGAIDLASDISQVSDIDISKRNEDFGQTLGFYGIGSGPYLVLPILGPSTVRDTVGIGVDSTIFHPARAIYTSFDLLTVRLPVTTVEFIDRREQLLDLDKTLEEASLDKYEFVRDAYLQRRESLIKNDGAASEEEPVNFDEEEIIIDD | not soluble
11 | ALVGDNLEQIDARLVNSLPLFKDQEGRDVNVRVGRYGPYLERQVGVSEDGEPEYQRANLSDSTTPDELTLELAEKLFATPQSGRELGRNPKNNRMIVAKEGRFGPYVTELVNDDERTEVEAKAEEIVAAEREAEDLQRAAEGKRAKNWGTKTAAAQKEKRIAQIIEETLKPSTASLFKTMEPSSVTLDEALQLLALPREVGVDPSDNEVITAQNGRYGPYLKKGSDSRTLASEDQIFSITLDEARRIYAEPKRRGRGATSQSVIKQLGDNDVSGKPMSVRDGRFGPYVTDGTTNASLRRGDDPTQLTEARANELLSERRAKEAADGGSSKKATKKASKKTTKRVAKAGARKKK | not soluble
12 | MGSSHHHHHHGKTIFVIVPTNEEQVAFLEALAKQDELNFDWQNPPTEPGQPVVILIPSDMVEWFLEMLKAKGIPFTVYVEEGGSENLYFQGGGGGGRRLFLLLAWQPSFAKHLSELEPVPQRAPVEKRRRQHIPLSLQAREELSRKSNELQYHVVTQDWFGQRVDDFVTQHHPEWDYETVKRLVQQGHIYRYRKNGKKRYTRLTDRLEFDELVVVPTASFWERQLAPPSGVELQSSSTSQQQERRQKFHLSAKTREMAQEMVLFKNEHVIVINKPSGVPIMPTHDPLAMNITDLLPAWRYTNTQTPVICHNLDTETSGCVVLARSANTHRMLGRMFVKRVVPNSVYWGFAVGKPPVNFGRIRMHFEVQKGQGGDVIVARPTPTADSKVGIAEFVVNASALEFGSFISFYPLTTRRHQERIMAAHALRAPLLGDAKYGGESAFPHSLSLFWDPARKDVPLHLHHRKIQLPYKNGAGEFVCVTAPLPPHMEKTFKRLGWPVDADDPLIPG | not soluble
13 | MGSDKIHHHHHHMNYKTSIADNVTEKEISEKLGISLSTVKRSVSRLKNNKNLIDKVISNNVIAEGSYKTYNKYHVAKCNEDFFYIYNSFFNDDMNIAKASERIKIKNFLLKLKAICKKETNKYISESPYMDGLNKAELSKKLGIIDTKTLNKYLEMAVNAGQIKYITNGLLILNKSIIPDFKKDDTDTRIYHIIYDWCIDNDVVPPDRNDEIKIMEDGSVRRKNSLLLEIAGKLGYMKDEEIRSLLTNRITSEEITLEYIAKVLNIKNKKKKEEIEWPPIIMLD | not soluble
14 | MSTHLLHALWLKNSGLHLWIEQVEGHKIVLSDAVPDNTFPDSVATLIRGKRFTHQVKTKLLTPKGREVTLQLPTIAFTPEQAVRVLSQIAAITPMMASSAQRATLAPDLMWMVRLYQGLEQFVRAGRLTIKLGYADHQWWPTWQLSSGLQERGWIAQMTAAAPGVLIANAGSSVAEDIADELPHWIANFLLQDLLDTPRSSEWHSFPEALMRSTPLRRGTAQLVSALNEWRDSMTSVSVQLVFIVEEPSKDREDRIDPADMLWPIRVRVRSGVDSPQPIMLSHYDSATKERLNALRREAILVAPILEKQGTDSNVTPTQLFELQREEGAGDWDCYVTTDQLVEFIGDAAARLKSRGFNVLLPRSWDQQETKAHLRLSDPAEASTQATIGLDKIVDYDWHMSVGDIELTEAEMVELVRSKSGLIHLRGEWVMADTAAIRRIGDYMKDVAAQSRKRKKQALDTAVMEAELAKANDDPRWPMLEARAEKLAEEFNNEFAEFGQVTLAELRELALKAQENEPIAYTGSPWHASLAGGSMGKDSPAPQRVSI | not soluble
15 | MQGLQLPQIYFSAAERRPKFVMKTGLSATEKNEVIKAAYRQIFERDITRAYSLSISDLESKVKNGDISMKEFVRRLAKSPLYQKQFYQPFINSRVIELAFRHILGRGPSSREEVQKYFSIISNGGLPALVDALVDSAEYSDYFGEETVPYLRGLGQEALEHHHHHH | not soluble
16 | MSLSRLSSPQTFSRVFIVARGAATGHAVAPSSDNSIGYFEKIAYRFKGIPLPTETEAPKSMFDACNKEWSAPELLPSVPKDFKEHPDRDLTNYPYPSRPMYPPKTRLLMMPDSWFTAFQKVTGTSGPYLFFGGLFAFLVNKELWVFEEQGHMTVGWILFYLLVSRTAGYKIDAGLYKDYQERVGFFKGLIQEDLKEAVDFRKTSAAQTASFAALKEGMPTSLKDSMQLQLEAAYRKNVQTISNEIKRRIEYLKETEETKARFERDQLLKLINDSVEKQVSQKDFQEKFLQNAIQQLKGIAV | not soluble
17 | MSHLPLLALSPLDGRYLSKVDTLRPIFSEYGLIKSRVKVEIAWLLALAAEPNIVELAPFSVAAQTRLRVLADGLTIEHAARVKEIEHTTNHDVKAVEYFIKEQLKDDIELRRGLEFVHFACTSEDINNLSYSLMLQQARDDVLLPTLDGIATHLRTLAHAQAAQPMLSRTHGQTASPTTLGKEIANVVARLERQRHQIATIALSGKINGAVGNYNAHTISYPEVNWPALAQRFVESLGLVFNPYTTQIEPHDTIAEISDAIRRANTILIDLARDLWGYISLGYFKQKLKEGEIGSSTMPHKVNPIDFENAEGNFGVANALFEHFSTKLPISRWQRDLTDSTVLRALGTAFGHTQVALDSLNKGLHKLSPNPERIDADLDAAWEVLAEAVQTIMRRHNLPNPYEQLKALTRGQGITADSMRAFIETLDLPTEAKQRLHDLTPRAYTGLAKQLALNI | not soluble
18 | GPLGSMEPPLPVGAQPLATVEGMEMKGPLREPCALTLAQRNGQYELIIQLHEKEQHVQDIIPINSHFRCVQEAEETLLIDIASNSGCKIRVQGDWIRERRFEIPDEEHCLKFLSAVLAAQKAQS | soluble
